In one assay the target is Met receptor (Homo sapiens, UniProt P08581, DEL964-1010). In words: Met receptor inhibition in serum-starved, rhuHGF-stimulated cells, immunoblot with infrared quantification. It is filed as cell-based. As to conditions: H596 cells (Met exon 14 deletion), antibody 30 minutes, then 100 ng/ml rhuHGF; FIGS. 4A, 6. The protocol: (§1) To examine the prolonged signaling in H226, H596, H358, or Rat 1A-Met stable clones, the cells were rinsed with PBS then serum-starved in RPMI or DMEM media containing 0.5% BSA, 2 mM glutamine, and penicillin/streptomycin for one hour. rhuHGF or the agonistic anti-Met monoclonal antibody, 3D6 (Genentech), was added to the serum-free media for 10 minutes. The monolayer of cells was then rinsed with PBS and incubated with serum-free media until their extraction at the indicated times. Cells were then rinsed once with PBS, lysed with 1×SDS sample buffer containing 1×DTT (Invitrogen), sonicated briefly, and boiled for 5 minutes. […] Boiled samples were analyzed by SDS-PAGE and immunoblotted with P-Met (Y1230/Y1234/Y1235, BioSource), P-Met (Y1234/Y1235), Met (DL-21), P-MAPK (E10, Cell Signaling), P-MAPK (Cell Signaling), P-Akt (587F11, Cell Signaling), or Akt (Cell Signaling). […] Proteins transferred onto nitrocellulose membranes were detected by infrared scan using Odyssey (LiCor) according to the manufacturer's recommended western blotting instructions followed by quantification. […] After 72 hrs, cell viability was measured using the Celltiter-Glo Luminescent Cell Viability Assay (Promega). Stimulation indices were determined by dividing the average cell viability units of HGF-stimulated cultures by the average cell viability units of unstimulated cultures. […]
In general terms: In western blotting, separated proteins are transferred to a membrane and probed.

The next assay concerns H596 cells. Put plainly: Growth inhibition assay (Celltiter-Glo cell viability, 72 hrs, HGF stimulation). In kind it is cell-based, human. Conditions: with or without 50 ng/ml rhuHGF, FIG. 4B. The protocol:
as §1
(In ATP-based viability assays light output follows the ATP content of the culture.)

B1: OA-5D5: known anti-c-met inhibitor; antibody of intact light chain, heavy chain and N-terminally truncated heavy chain comprising an Fc portion (antibody, V domains shown)
VH: EVQLVESGGGLVQPGGSLRLSCAASGYTFTSYWLHWVRQAPGKGLEWVGMIDPSNSDTRFNPNFKDRFTISADTSKNTAYLQMNSLRAEDTAVYYCATYRSYVTPLDYWGQGTLVTVSS
VL: DIQMTQSPSSLSASVGDRVTITCKSSQSLLYTSSQKNYLAWYQQKPGKAPKLLIYWASTRESGVPSRFSGSGSGTDFTLTISSLQPEDFATYYCQQYYAYPWTFGQGTKVEIK
modifications: constant regions; truncated heavy chain Fc; Sequence is synthesized
notes: antibody of intact light chain, heavy chain and N-terminally truncated heavy chain comprising an Fc portion
As to B1, in the assay with Met receptor, the MAPK phosphorylation result is “decreased with the addition of anti-Met OA-5D5 in a dose-dependent manner” and the Met phosphorylation result is “decreased with the addition of anti-Met OA-5D5 in a dose-dependent manner”. Further, the “cell proliferation (cell viability)” value in the assay with H596 cells is “dose-dependent inhibition of cell proliferation in a ligand-dependent manner”.

The values are drawn from patent US8536118B2, “Methods and compositions for modulating hyperstabilized c-met” (Genentech, Inc., priority 2005, dated 2013).
